{"source": "patent US20230392126A1", "about": "“TISSUE ORGANOIDS” (priority 2016, published 2023)", "molecules": {"B1": {"name": "hBChE: modified human butyrylcholinesterase (E30-6, SEQ ID NO: 41), cocaine hydrolase, expressed from engineered epidermal cells / skin grafts (protein)", "chain": "MHSKVTIICIRFLFWFLLLCMLIGKSHTEDDIIIATKNGKVRGMNLTVFGGTVTAFLGIPYAQPPLGRLRFKKPQSLTKWSDIWNATKYANSCCQNIDQSFPGFHGSEMWNPNTDLSEDCLYLNVWIPAPKPKNATVLIWIYGGGFQTGTSSLHVYDGKFLARVERVIVVSMNYRVGALGFLALPGNPEAPGNMGLFDQQLALQWVQKNIAAFGGNPKSVTLFGESSGAASVSLHLLSPGSHSLFTRAILQSGSANAPWAVTSLYEARNRTLNLAKLTGCSRENETEIIKCLRNKDPQEILLNEAFVVPYGTALGVNFGPTVDGDFLTDMPDILLELGQFKKTQILVGVNKDEGTWFLVGGAPGFSKDNNSIITRKEFQEGLKIFFPGVSEFGKESILFHYTDWVDDQRPENYREALGDVVGDYNFICPALEFTKKFSEWGNNAFFYYFEHRSSKLPWPEWMGVMHGYEIEFVFGLPLERRDNYTKAEEILSRSIVKRWANFAKYGNPNETQNNSTSWPVFKSTEQKYLTLNTESTRIMTKLRAQQCRFWTSFFPKVLEMTGNIDEAEWEWKAGFHRWNNYMMDWKNQFNDYTSKKESCVGL", "modifications": "Human mutant BChE"}}, "key": {"[1]": {"test": "Stability and tolerance of transplanted skin organoids in immunocompetent hosts", "assay_type": "in vivo, mouse", "settings": "isogenic hosts CD1 and C57BL/6", "from_the_text": "For grafting with skin organoids, CD1 (isogenic mouse keratinocyte transplantation) males or Nude (human keratinocyte transplantation) females with the ages of 6-8 weeks were anesthetized. A silicone chamber bottom with the interior diameter of 0.8 cm and the exterior diameter of 1.5 cm was implanted on its shaved dorsal mid-line skin, which was used to hold the skin graft. A chamber cap was installed to seal the chamber right after a piece of graft was implanted. About one week later, the chamber cap was removed to expose the graft to air. A single dose of 0.2 mg α-CD4 (GK1.5) and 0.2 mg α-CD8 (2.43.1) antibodies was administered intraperitoneally for skin grafting.\nOptical imaging was performed in the integrated small animal imaging research resource (iSAIRR) at the University of Chicago. Bioluminescence images were acquired on an IVIS Spectrum (Caliper Life Sciences®, Alameda, CA) after animal was injected with luciferin (100 mg/kg). […]\nGrafted cells in immunocompetent hosts readily expressed exogenous genes, such as Luciferase and Histone H2B-RFP (FIG. 1B-D), which were transduced to the cells with lentivirus. […] Importantly, the tissue organoid with expression of exogenous gene, such as Luciferase and H2B-RFP, was stable in vivo for more than 5 months in immunocompetent hosts, as determined by intravital bioluminescence imaging and tissue histology. […]"}, "[2]": {"test": "Acute drug overdose test: cocaine-induced lethality", "assay_type": "in vivo, mouse", "settings": "40, 80, 120, 160 mg/kg cocaine i.p.", "description": "For all behavioral experiments except where noted, C57BL/6J mice were used. Roughly equal numbers of adult male and female mice were group-housed until surgery. Mice were maintained under controlled temperature and humidity conditions on a 12 h:12 h light:dark cycle (lights on at 7:00). Water and food were available ad libitum. Mice weighed around 25-30 g at the beginning of the experiments. All procedures followed National Institutes of Health Guide for the Care and Use of Laboratory Animal and were approved by the University of Chicago Institutional Animal Care and Use Committee.\nDrug: Cocaine HCl and methamphetamine HCl (Sigma-Aldrich, Saint Louis, MO) were dissolved in sterile saline and delivered intraperitoneally at appropriates doses in a volume of 10 mL/kg. […]\nAcute drug overdose test: Two weeks after grafting surgery, 4 groups of GhBChE and 4 groups of GWT mice (n=8 each in each group) received i.p. injections of cocaine at 40, 120, and 160 mg/kg. […] Mice were monitored for 2 h following injection and percent of cocaine- and METH-induced lethality was calculated.\nTo first determine whether engrafting hBChE-expressing cells protects mice from acute systemic toxicity of cocaine, we delivered different doses of cocaine to grafted mice and calculated the lethality rates of cocaine. […]"}, "[3]": {"settings": "cocaine hydrolysis; cited from earlier work"}, "[4]": {"test": "hBChE in blood by ELISA, nude mice grafted with human skin organoids"}}, "data": [{"molecule": "B1", "values": [{"measurement": "time without significant rejection of skin grafts", "setting": "[1]", "result": "at least 5 months"}, {"measurement": "cocaine-induced lethality in GhBChE mice", "setting": "[2]", "result": "nearly lethality"}, {"measurement": "catalytic efficiency (kcat/KM) relative to wild-type (WT) hBChE", "setting": "[3]", "result": "more than 4400 times"}, {"measurement": "duration of stable hBChE expression in vivo", "setting": "[4]; human grafts", "result": "more than 8 weeks"}, {"measurement": "level of human BChE in the blood", "setting": "[4]; human hBChE-expressing grafts", "result": "significantly levels of human BChE in the blood"}]}]}
